In article PMC9637641, “Regulation of factor V by the anticoagulant protease activated protein C: Influence of the B-domain and TFPIα” (The Journal of Biological Chemistry, 2022):

Assays:
OG488-TFPIα-BR [1] = molecular target: T1, OG488-TFPIα-BR (fluorescently labeled with OG488 (Oregon Green 488 maleimide)); experiment: cell-based or functional assay
OG488-TFPIα-BR [2] = molecular target: T1, OG488-TFPIα-BR; experiment: fluorescence polarisation; steady-state fluorescence anisotropy; FV species or APCi titrated (0–100 nM) into 25 nM OG488-TFPIα-BR and 50 μM PCPS vesicles in HBS/Ca2+/PEG, pH 7.4 (20 mM Hepes, 150 mM NaCl, 5 mM CaCl2, 0.1% PEG-8000), 25 °C; fit to a model for tight binding; settings: both partners purified

T1 sequence (P10646 268-293): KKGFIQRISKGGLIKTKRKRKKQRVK

Reduced fold change of inactivation by APC, +TFPIα-BR (kobs no BR divided by kobs +BR; % peak thrombin in TGA; 20 nM FV species, 250 nM BR fragment, 1 nM APC) (OG488-TFPIα-BR [1]): 14.2 fold
Kd (OG488-TFPIα-BR [2]): 1.56 nM
stoichiometry N (OG488-TFPIα-BR [2]): 1.18 mol/mol
B1: FV-short (natural protein)
chain: AQLRQFYVAAQGISWSYRPEPTNSSLNLSVTSFKKIVYREYEPYFKKEKPQSTISGLLGPTLYAEVGDIIKVHFKNKADKPLSIHPQGIRYSKLSEGASYLDHTFPAEKMDDAVAPGREYTYEWSISEDSGPTHDDPPCLTHIYYSHENLIEDFNSGLIGPLLICKKGTLTEGGTQKTFDKQIVLLFAVFDESKSWSQSSSLMYTVNGYVNGTMPDITVCAHDHISWHLLGMSSGPELFSIHFNGQVLEQNHHKVSAITLVSATSTTANMTVGPEGKWIISSLTPKHLQAGMQAYIDIKNCPKKTRNLKKITREQRRHMKRWEYFIAAEEVIWDYAPVIPANMDKKYRSQHLDNFSNQIGKHYKKVMYTQYEDESFTKHTVNPNMKEDGILGPIIRAQVRDTLKIVFKNMASRPYSIYPHGVTFSPYEDEVNSSFTSGRNNTMIRAVQPGETYTYKWNILEFDEPTENDAQCLTRPYYSDVDIMRDIASGLIGLLLICKSRSLDRRGIQRAADIEQQAVFAVFDENKSWYLEDNINKFCENPDEVKRDDPKFYESNIMSTINGYVPESITTLGFCFDDTVQWHFCSVGTQNEILTIHFTGHSFIYGKRHEDTLTLFPMRGESVTVTMDNVGTWMLTSMNSSPRSKKLRLKFRDVKCIPDDDEDSYEIFEPPESTVMATRKMHDRLEPEDEESDADYDYQNRLAAALGIRSFRNSSLNQEEEEFNLTALALENGTEFVSSNTDIIVGSNYSSPSNIDLGQMPSPSSPTLNDTFLSKEFNPLVIVGLSKDGTDYIEIIPKEEVQSSEDDYAEIDYVPYDDPYKTDVRTNINSSRDPDNIAAWYLRSNNGNRRNYYIAAEEISWDYSEFVQRETDIEDSDDIPEDTTYKKVVFRKYLDSTFTKRDPRGEYEEHLGILGPIIRAEVDDVIQVRFKNLASRPYSLHAHGLSYEKSSEGKTYEDDSPEWFKEDNAVQPNSSYTYVWHATERSGPESPGSACRAWAYYSAVNPEKDIHSGLIGPLLICQKGILHKDSNMPMDMREFVLLFMTFDEKKSWYYEKKSRSSWRLTSSEMKKSHEFHAINGMIYSLPGLKMYEQEWVRLHLLNIGGSQDIHVVHFHGQTLLENGNKQHQLGVWPLLPGSFKTLEMKASKPGWWLLNTEVGENQRAGMQTPFLIMDRDCRMPMGLSTGIISDSQIKASEFLGYWEPRLARLNNGGSYNAWSVEKLAAEFASKPWIQVDMQKEVIITGIQTQGAKHYLKSCYTTEFYVAYSSNQINWQIFKGNSTRNVMYFNGNSDASTIKENQFDPPIVARYIRISPTRAYNRPTLRLELQGCEVNGCSTPLGMENGKIENKQITASSFKKSWWGDYWEPFRARLNAQGRVNAWQAKANNNKQWLEIDLLKIKKITAIITQGCKSLSSEMYVKSYTIHYSEQGVEWKPYRLKSSMVDKIFEGNTNTKGHVKNFFNPPIISRFIRVIPKTWNQSIALRLELFGCDIY
